Reference: patent publication US11078242 (SOTIRA COVID, dated 2021)

What was measured:
[1] = biological target: T1, angiotensin converting enzyme-2 (ACE-2), full-length ACE-2 protein (UniProt Q9BYF1 18-740); assay: fluorescence polarization; FITC-tagged ACIS peptide titrated with hACE-2
T1 construct: also called ACE-2 enzyme; ACE-2 receptor

[2] = biological target: T1, angiotensin converting enzyme-2 …; assay: FITC-labeled ACIS (FIG. 4B)

T1 sequence (Q9BYF1 18-740 limits assumed): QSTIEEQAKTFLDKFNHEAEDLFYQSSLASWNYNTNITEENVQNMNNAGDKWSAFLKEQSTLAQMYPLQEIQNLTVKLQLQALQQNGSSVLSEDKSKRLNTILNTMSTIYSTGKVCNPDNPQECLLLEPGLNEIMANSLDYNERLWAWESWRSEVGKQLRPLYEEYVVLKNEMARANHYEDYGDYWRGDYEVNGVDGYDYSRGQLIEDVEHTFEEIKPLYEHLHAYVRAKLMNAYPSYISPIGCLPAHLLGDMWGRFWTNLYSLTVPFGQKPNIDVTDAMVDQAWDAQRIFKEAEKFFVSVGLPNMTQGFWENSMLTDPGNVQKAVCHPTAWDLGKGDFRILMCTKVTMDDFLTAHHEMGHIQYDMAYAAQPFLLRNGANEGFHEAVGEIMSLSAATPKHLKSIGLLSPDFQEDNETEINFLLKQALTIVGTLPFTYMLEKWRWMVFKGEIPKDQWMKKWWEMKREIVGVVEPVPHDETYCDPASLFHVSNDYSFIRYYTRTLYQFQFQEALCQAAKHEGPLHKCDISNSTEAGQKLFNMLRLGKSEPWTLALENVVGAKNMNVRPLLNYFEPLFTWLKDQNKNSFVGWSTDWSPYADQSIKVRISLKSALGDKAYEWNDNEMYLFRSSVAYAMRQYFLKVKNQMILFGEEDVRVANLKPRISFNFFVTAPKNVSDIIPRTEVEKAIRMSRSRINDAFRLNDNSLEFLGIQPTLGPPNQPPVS

B1: KEPTIDE2 (FITC tagged KEPTIDE; ACIS peptide tagged with FITC probe at C-terminal end) (peptide)
peptide: FQPTNGVGYQPYGK
modifications: FITC at the C-terminal end (on the C-terminal lysine tag according to paragraph 109)
notes: also called FITC-tagged ACIS peptide; FITC-labeled ACIS
Question: For B1, which “EC50 (read off the curve)” value [1] is on record?
Answer: ~6 nmol/L

Question: And the Kd [1]?
Answer: 6.38 nM

Question: What about the IC50 [2] of the same binder?
Answer: 24.5 nM
